The labels stand for the following.
B1: Prp4 (natural protein)
chain: MSKYIALENLPVDLQHKGATQNESTADILKQLPHERLQAVLEKIPEEDLEVRRLLSILKKPEVVENEDVQQRRIRLAEILMVDEIDLENINNMENINGEEVDEEDDEDFFTPATSELIFARRFLINYSLERSRKRLQKEMERHQKFNTRQELLSRRTELQRMANLELAGSQLVSTKPISAVSLSTDDMVVATGSWAGDLQVLNSQTLQPLTQKLDSHVGKIGAIDWHPDSNNQMISCAEDGLIKNFQYSNEEGGLRLLGDLVGHERRISDVKYHPSGKFIGSASHDMTWRLWDASTHQELLLQEGHDKGVFSLSFQCDGSLVCSGGMDSLSMLWDIRSGSKVMTLAGHSKPIYTVAWSPNGYQVATGGGDGIINVWDIRKRDEGQLNQILAHRNIVTQVRFSKEDGGKKLVSCGYDNLINVYSSDTWLKMGSLAGHTDKIISLDISNNSHFLVSGGWDRSIKLWN
B2: Snu13 (natural protein, S. cerevisiae, UniProt P39990 1-126, looked up)
chain: MSAPNPKAFPLADAALTQQILDVVQQAANLRQLKKGANEATKTLNRGISEFIIMAADCEPIEILLHLPLLCEDKNVPYVFVPSRVALGRACGVSRPVIAASITTNDASAIKTQIYAVKDKIETLLI
B3: Snu66 (natural protein, S. cerevisiae, UniProt Q12420 1-587, looked up)
chain: MNKTENLSIEETNEIREKLGMKPIPVFQEKNTDHKESLSIEETNELRASLGLKLIPPQQNFNSSPPNVHNTSKIDELREKITKFQKKANAPLRMAHLLEETNVNDDSSWLENMDAIPSSHESKRSSTLPRKGATKEDENIDLHNVQVSYNIEALSPKKDTILTLKESSIFDDTDSTEVLENVKAAEENADREKLRLRQMNKDRRQKKKILNVSSLDIEEEEEGEKHSITTTHLIIGAEQGVMKAPNTISAKPPTGKVKVNFDSANNMSDEDGGDFKPLKIKKRKIKDPRSTKARKSKITDKMEIVKLVDEDESLSWMEEEQPVTIINPRTSSNNELKGPEDLAREIEKARDEEKRRTESILKMREISNSIVVDEKVTFLNTLDTSLSERSATENKVKVHGEGEKNIGDVTNGHTKEGSGNNTLTEAVNNEPNYEGDAENAPNFFSGLASTLGYLRKKSVFTTGDVDLKPGKDVNNSESLRRDVRNKEHTGTGTYTKDKLHGLEQFTSSDSSNANTHSKRQDHYDPDIKLVYRDEKGNRLTTKEAYKKLSQKFHGTKSNKKKRAKMKSRIEARKNTPENGSLFEFDDN
B4: Prp31 (natural protein)
chain: MSSEEDYFDELEYDLADEVNEEKEDIQTKKLTTVNCQTEKFNPFEILPESIELFRTLALISPDRLSLSETAQILPKIVDLKRILQQQEIDFIKLLPFFNEIIPLIKSNIKLMHNFLISLYSRRFPELSSLIPSPLQYSKVISILENENYSKNESDELFFHLENKAKLTREQILVLTMSMKTSFKNKEPLDIKTRTQILEANSILENLWKLQEDIGQYIASKISIIAPNVCFLVGPEIAAQLIAHAGGVLEFSRIPSCNIASIGKNKHLSHELHTLESGVRQEGYLFASDMIQKFPVSVHKQMLRMLCAKVSLAARVDAGQKNGDRNTVLAHKWKAELSKKARKLSEAPSISETKALPIPEDQPKKKRAGRKFRKYKEKFRLSHVRQLQNRMEFGKQEQTVLDSYGEEVGLGMSNTSLQQAVGATSGSRRSAGNQAKLTKVMKHRISEANQQADEFLISLGHNTEQPNLSPEMVQMHKKQHTNPEEETNWFSGHG
B5: Dib1 (natural protein, S. cerevisiae, UniProt Q06819 1-143, looked up)
chain: MASVLLPQLRTGWHVDQAIVTETKRLVVIRFGRKNDRQCMIMDELLSSIAERVRNFAVIYLCDIDEVSDFDEMYELTDPMTVMFFYHNKHMMCDFGTGNNNKLNFIVDDKQEMIDILETIFRGARKNKGLVVSPYDYNHKRVS
B6: Prp3 (natural protein)
chain: MPPRNTYEKGNPKRQNSPYYKPSFLRREETTNDEEKFQGHGLKTELHSALKSSNLNLIRRTYQTGENPYLSDPHDRGSSSRFNRRYERGLKFYQKGEISKRIAQERTLQKQQEEEELKRKLKQEEDEKDKRKLIESGDLPNLELHEDKFLLDLSKFKIYYDNNHGYEWWDTAYLDEKGELMEKYDMNGTSPAEEKLAEDIDEVDDDDDDEHPSIRYVAHPLPEKINEAKVSIKAYLTQHERKRLRRNRRKMAREAREIKIKLGLLPKPEPKVKLSNMMSVFENDQNITDPTAWEKVVKDQVDLRKRKHLEENERRHEDAIKRRKEAVNMNVEKPTVYHCKVFQFKNLQNPKIRFKLKMNSKELSLKGLCLRIRDDGPGIIIVVGNEKSCKFYENLVMKRIKWNEDFELHTNTGDIKMDMHNNSISKTWEGYLQDCKFKGWFMKVCNDQDSLLRTLGQFDSEHFYSPVQT

Holding throughout (assay): cryo-EM structure
The test “Prp3” concerns the target B6.
The target of the test “Prp31” is B4.
For the test “Prp4”, the target named is B1.
A further test has as its target Brr2 (S. cerevisiae, UniProt P32639 1-2163).
A further test addresses T1, Prp6 (S. cerevisiae, UniProt P19735 1-899).
T1 sequence: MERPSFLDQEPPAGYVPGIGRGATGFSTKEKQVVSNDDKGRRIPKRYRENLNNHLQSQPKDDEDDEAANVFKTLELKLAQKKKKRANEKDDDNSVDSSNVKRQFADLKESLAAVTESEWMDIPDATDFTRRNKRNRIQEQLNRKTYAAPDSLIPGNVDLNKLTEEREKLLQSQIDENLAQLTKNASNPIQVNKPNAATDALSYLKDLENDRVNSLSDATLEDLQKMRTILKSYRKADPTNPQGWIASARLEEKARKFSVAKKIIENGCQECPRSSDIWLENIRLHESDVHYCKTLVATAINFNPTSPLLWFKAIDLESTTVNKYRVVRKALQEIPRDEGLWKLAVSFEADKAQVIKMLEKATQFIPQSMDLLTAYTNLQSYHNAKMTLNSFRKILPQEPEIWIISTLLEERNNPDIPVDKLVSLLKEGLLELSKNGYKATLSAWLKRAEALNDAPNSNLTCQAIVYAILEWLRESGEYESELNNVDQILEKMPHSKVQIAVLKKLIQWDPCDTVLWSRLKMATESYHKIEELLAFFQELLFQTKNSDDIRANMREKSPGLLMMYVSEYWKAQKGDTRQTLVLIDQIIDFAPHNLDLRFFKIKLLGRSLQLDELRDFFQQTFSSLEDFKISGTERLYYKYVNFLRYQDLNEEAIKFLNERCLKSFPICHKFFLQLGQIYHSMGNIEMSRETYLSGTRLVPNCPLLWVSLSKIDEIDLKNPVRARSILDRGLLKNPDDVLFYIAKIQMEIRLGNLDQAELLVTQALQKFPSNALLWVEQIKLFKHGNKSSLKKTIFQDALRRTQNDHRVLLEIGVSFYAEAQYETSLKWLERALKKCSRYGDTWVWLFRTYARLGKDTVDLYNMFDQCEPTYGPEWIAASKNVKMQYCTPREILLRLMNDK

Sequence of Brr2 (P32639 whole entry): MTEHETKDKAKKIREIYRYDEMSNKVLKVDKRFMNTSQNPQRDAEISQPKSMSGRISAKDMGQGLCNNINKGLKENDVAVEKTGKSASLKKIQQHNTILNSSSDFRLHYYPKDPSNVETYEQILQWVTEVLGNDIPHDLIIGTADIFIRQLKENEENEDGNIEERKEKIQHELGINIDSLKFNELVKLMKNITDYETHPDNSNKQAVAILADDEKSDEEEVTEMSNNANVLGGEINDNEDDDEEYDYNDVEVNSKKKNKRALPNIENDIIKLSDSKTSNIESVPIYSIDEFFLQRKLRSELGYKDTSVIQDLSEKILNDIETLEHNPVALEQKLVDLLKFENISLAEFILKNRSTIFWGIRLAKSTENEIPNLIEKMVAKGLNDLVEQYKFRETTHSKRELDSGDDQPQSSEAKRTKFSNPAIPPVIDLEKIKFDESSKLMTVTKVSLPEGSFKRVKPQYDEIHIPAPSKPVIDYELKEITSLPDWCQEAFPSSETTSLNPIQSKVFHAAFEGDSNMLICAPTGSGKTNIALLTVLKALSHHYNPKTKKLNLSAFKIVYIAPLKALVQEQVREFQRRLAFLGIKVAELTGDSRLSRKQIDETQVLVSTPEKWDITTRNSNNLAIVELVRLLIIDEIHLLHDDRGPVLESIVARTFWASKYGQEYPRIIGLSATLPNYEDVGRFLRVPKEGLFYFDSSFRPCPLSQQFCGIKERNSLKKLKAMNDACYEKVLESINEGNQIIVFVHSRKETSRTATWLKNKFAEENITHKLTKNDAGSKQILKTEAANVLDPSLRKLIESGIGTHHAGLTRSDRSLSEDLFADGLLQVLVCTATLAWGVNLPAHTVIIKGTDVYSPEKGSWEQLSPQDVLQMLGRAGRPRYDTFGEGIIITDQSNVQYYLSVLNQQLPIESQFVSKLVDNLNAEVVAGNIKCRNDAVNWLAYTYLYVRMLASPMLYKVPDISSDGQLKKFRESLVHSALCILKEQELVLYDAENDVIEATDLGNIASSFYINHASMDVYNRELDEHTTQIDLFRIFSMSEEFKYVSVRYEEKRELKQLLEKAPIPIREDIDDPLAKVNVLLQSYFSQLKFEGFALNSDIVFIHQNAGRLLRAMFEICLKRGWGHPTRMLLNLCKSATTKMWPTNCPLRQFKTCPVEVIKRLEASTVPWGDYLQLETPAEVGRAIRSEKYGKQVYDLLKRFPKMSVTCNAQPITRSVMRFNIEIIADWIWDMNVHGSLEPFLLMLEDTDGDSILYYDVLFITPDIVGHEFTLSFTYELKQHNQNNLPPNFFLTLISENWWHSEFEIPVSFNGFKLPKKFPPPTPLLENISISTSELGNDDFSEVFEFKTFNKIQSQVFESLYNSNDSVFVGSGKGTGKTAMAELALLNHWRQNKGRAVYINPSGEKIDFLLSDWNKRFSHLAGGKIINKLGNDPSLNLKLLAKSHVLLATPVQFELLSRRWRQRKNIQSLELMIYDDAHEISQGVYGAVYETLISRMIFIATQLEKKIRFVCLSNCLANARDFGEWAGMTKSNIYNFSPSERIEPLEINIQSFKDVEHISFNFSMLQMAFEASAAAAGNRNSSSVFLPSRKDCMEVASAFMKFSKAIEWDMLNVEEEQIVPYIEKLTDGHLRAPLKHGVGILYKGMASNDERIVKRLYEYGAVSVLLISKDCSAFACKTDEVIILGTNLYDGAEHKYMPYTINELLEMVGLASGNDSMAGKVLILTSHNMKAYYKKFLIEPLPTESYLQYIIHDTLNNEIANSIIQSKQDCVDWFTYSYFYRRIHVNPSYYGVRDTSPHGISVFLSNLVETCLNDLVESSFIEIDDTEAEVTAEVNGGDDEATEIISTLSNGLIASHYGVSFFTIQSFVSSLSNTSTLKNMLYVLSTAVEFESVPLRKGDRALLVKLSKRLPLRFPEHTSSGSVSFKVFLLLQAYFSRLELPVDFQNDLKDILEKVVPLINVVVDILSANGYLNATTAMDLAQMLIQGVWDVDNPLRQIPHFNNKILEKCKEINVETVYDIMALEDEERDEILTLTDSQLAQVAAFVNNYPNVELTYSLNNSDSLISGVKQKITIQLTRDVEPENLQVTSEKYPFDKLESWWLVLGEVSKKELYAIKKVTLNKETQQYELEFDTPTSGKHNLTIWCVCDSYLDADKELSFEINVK

On to B1, for which the binding result with Prp3 is reported as “binds”.

In the case of B2, the binding result with Prp31, with Prp3 and in the test with Prp4 was “binds” each time.

On to B3, for which the binding result in the test with Brr2 was “binds”. Take B4: the binding result with Prp6 is on record as “binds”. In the case of B5, the binding result with Prp31 is “binds”. Take B6: the binding result with Brr2 is “binds”.

These data come from publication PMC4762201 (Nature, 2016).
